One assay deals with HePTP (Homo sapiens) (UniProt P35236). The conditions noted are these: cited from earlier work.
Another assay concerns the target PTPSL (Homo sapiens) (UniProt Q15256). The conditions noted are these: cited from earlier work.
The target in assay [1] is DUSP16 MKBD MKBD (Homo sapiens) (UniProt Q9BY84). Nature of the assay: ITC. As to conditions: cited from earlier work.
Assay [2] has as its target T1, ERK2 (Rattus norvegicus, UniProt P63086).
T1 construct: gene Mapk1; made in house
Nature of the assay: Isothermal titration calorimetry with ERK2. It is filed as binding. The procedure:
The PTPSLKIM peptide (residues 331–348), STEPKIM (residues 213–229) and STEPKIMKIS (residues 213–256) were synthesized, HPLC purified and verified by mass spectrometry (MS) (>98% purity; Biosynthesis, Inc.). Expression and purification of ERK2 and PTPSLKIMKIS (residues 332–373) was carried out as previously described, [15]. PTPSL (residues 332–655, human), STEP (residues 213–539, mouse) and PSChimera (PTPSL residues 332–373 with STEP residues 257–539; gene synthesized by DNA 2.0) were expressed and purified using the protocol previously described in detail for STEPCAT (residues 244–539). The DUSP16 MAPK binding domain (residues 5–138, human) was expressed and purified as previously described. All purified proteins were stored at −80 °C until use at which point they were thawed and exchanged into the appropriate buffer using size exclusion chromatography (SEC; Superdex 75 26/60; GE Healthcare). The final protein buffer was dependent on the experiment performed. For ITC experiments, the final SEC purification was performed in ITC buffer (10 mM Tris pH 7.5, 150 mM NaCl, 0.1 mM EDTA, 0.5 mM TCEP); for SAXS experiments, the final SEC purification was performed in SAXS buffer (50 mM HEPES pH 6.8, 150 mM NaCl, 5 mM dithiothreitol). PTPSLKIM, STEPKIM and STEPKIMKIS peptides were solubilized in ITC buffer prior to ITC measurements.
ITC experiments were performed at 25 °C using a VP-ITC microcalorimeter (Microcal Inc.). Titrant (10 μL per injection) was injected into the sample cell over a period of 20 seconds with a 250 second interval between titrations to allow for complete equilibration and baseline recovery. 28 injections were delivered during each experiment and the solution in the sample cell was stirred at 307 rpm to ensure rapid mixing. To determine the thermodynamic parameters (ΔH, ΔS, ΔG) and binding constants (K) of the ERK2:PTPSLKIM, ERK2:PTPSL, ERK2:STEP and ERK2:PSChimera interactions, PTPSLKIM, PTPSL, STEP and PSChimera were titrated into ERK2. To determine the same parameters for the ERK2:STEPKIM, ERK2:PTPSLKIMKIS and ERK2:STEPKIMKIS interaction, ERK2 was titrated into the peptides. Titrants were chosen based on the amount of purified protein/peptide available for the experiment. For all titrations the concentrations were slightly varied to ensure independence of the Kd from the protein/peptide concentrations. Data were analyzed with a one-site binding model assuming a binding stoichiometry of 1∶1 using Origin 7.0 software. A nonlinear least-squares algorithm and the titrant and sample cell concentrations were used to fit the heat flow per injection to an equilibrium binding equation, providing values of the stoichiometry (n), change in enthalpy (ΔH) and binding constant (K). All data were repeated in triplicate.

Assay [3] has as its target T1, ERK2. Nature of the assay: SAXS of resting-state complexes with ERK2. For Dmax shorter than that of the ERK2:HePTP complex: values in Å. For Dmax, P(r) function: values in Å. For Rg smaller than that of the ERK2:HePTP resting-state complex: values in Å. The procedure:
To form the ERK2:STEP resting-state complex, purified, unphosphorylated ERK2 was incubated in a 1∶1 molar ratio with purified STEP213-539 at room temperature for 30 minutes and purified using SEC (Superdex 75 26/60 [GE Healthcare]; SAXS buffer). Data for the ERK2:STEP complex were recorded on samples at 0.7, 1.2 and 1.7 mg/ml. All samples were prepared within 48 hours of data acquisition and stored on ice at 4 °C. All samples were filtered ([…], Whatman) immediately prior to data collection. All data was recorded at Beamline X9A at the National Synchrotron Light Source (NSLS) using a Dectris Pilatus 300k (3.4 m distance from the sample for SAXS) and a Photonic Science CCD (0.47 m from the sample for WAXS) detector. 20 μl of sample was continuously flowed through a 1 mm diameter capillary and exposed to an X-ray beam for 30 seconds. Normalization for beam intensity, buffer subtraction and merging of the data from both detectors were carried out using PRIMUS [20]. A Guinier approximation, I(q) = I(0)exp(-q^2Rg ^2/3), where a plot of ln[I(q)] and q^2 is linear for q<1.3/Rg (q is the scattering vector q = 4πsin(θ)/λ; λ, wavelength of X-rays and 2θ is the angle between the incident beam and the scattering X-rays) was performed on at least four independent scattering trials and averaged to determine the radius of gyration (Rg). The linearity of the Guinier region and the intensity at zero scattering angle, I(0), were used to validate that all samples were monodisperse in solution. I(0)/c, where c is concentration, was consistent for all measurements. GNOM [21] was used to determine the pair-distribution function, P(r), for the ERK2:STEP resting-state complex using data collected on the 1.7 mg/ml sample. Twenty-four envelopes were generated using GASBOR [22] and were aligned and averaged using the DAMAVER program suite.

For assay [4], the target named is p38α. As to conditions: values previously published, ref [14], [15], [17], [18], cited from earlier work. An excerpt: We used ITC measurements to determine the binding affinity of STEP and PTPSL for unphosphorylated ERK2 ( Table 1; Figure S1). […] This complex has a ∼3-times lower Kd (tighter binding) than the next tightest complex, ERK2:PTPSL, and a nearly 70-fold greater affinity than the weakest complex, p38α:HePTP [15]. Like STEP, PTPSL binds ERK2 more tightly (∼3.5-fold) than p38α. We also tested peptides that include the kinase specificity s ... || We also generated a chimeric protein in which we fused the PTPSLKIMKIS to STEPCAT (PSchimera; Figure 1A ). […] Thus, they only adopt a single conformation when they bind their respective MAPKs. This is different from the MAPK-binding domains (MKBD) of MAPK phosphatases (MKP; dual specificity phosphatases; DUSPs), [26]. In MKPs, the KIM sequence is part of a stable, folded domain and thus adopts a single, ordered conformation in both the unbound and MAPK-bound states, [28]. […] Our ... || (+ 1 further places)

In assay [5] the target is T1, ERK2. Nature of the assay: SAXS of resting-state complexes with ERK2. For Dmax shorter than that of the ERK2:HePTP complex: values in Å. For Dmax, P(r) function: values in Å. For Rg smaller than that of the ERK2:HePTP resting-state complex: values in Å. As to conditions: ERK2:STEP; 24 GASBOR envelopes, DAMAVER.
For assay [6], the target named is T2, extracellular signal-regulated kinase 2 (ERK2), unphosphorylated (UniProt P63086 1-358).
T2 construct: ERK2 (extracellular signal-regulated kinase 2), unphosphorylated; also called MAPK; source: final SEC (Superdex 75 26/60)
In words: ITC; PTPSLKIM, PTPSL, STEP or PSChimera titrated into ERK2 in the cell; 25 °C; 10 mM Tris pH 7.5, 150 mM NaCl, 0.1 mM EDTA, 0.5 mM TCEP; one-site model; triplicate. The conditions noted are these: both partners purified.

The subject of assay [7] is p38α. The conditions noted are these: cited from earlier work. The text has this: Although there are a few structural differences between ERK2 and p38α in this region (e.g., the activation loop is six residues longer in ERK2), nearly all residues that that we sh ... || The KIM domains of KIM-PTPs are intrinsically disordered in solution [14], [15]. Thus, they only adopt a single conformation when they bind their respective MAPKs. This is different from the MAPK-binding domains (MKBD) of MAPK phosphatases (MKP; dual specificity phosphatases; DUSPs), [26]. In MKPs, the KIM sequence is part of a stable, folded domain and thus adopts a single, ordered conformation in both the unbound and MAPK-bound states, [28]. […] Our ...

Assay [8] addresses T2, extracellular signal-regulated kinase 2 …. Nature of the assay: ITC; DUSP16 MKBD and ERK2, which was the titrant is not stated; 25 °C; ITC buffer; one-site model; triplicate. The conditions noted are these: both partners purified.

Entries after “also recorded” stand apart in the source; their conditions may differ. Read-outs that look alike come from different tables or passages of the source.

PTPSL (Homo sapiens), sequence (Q15256 22-657): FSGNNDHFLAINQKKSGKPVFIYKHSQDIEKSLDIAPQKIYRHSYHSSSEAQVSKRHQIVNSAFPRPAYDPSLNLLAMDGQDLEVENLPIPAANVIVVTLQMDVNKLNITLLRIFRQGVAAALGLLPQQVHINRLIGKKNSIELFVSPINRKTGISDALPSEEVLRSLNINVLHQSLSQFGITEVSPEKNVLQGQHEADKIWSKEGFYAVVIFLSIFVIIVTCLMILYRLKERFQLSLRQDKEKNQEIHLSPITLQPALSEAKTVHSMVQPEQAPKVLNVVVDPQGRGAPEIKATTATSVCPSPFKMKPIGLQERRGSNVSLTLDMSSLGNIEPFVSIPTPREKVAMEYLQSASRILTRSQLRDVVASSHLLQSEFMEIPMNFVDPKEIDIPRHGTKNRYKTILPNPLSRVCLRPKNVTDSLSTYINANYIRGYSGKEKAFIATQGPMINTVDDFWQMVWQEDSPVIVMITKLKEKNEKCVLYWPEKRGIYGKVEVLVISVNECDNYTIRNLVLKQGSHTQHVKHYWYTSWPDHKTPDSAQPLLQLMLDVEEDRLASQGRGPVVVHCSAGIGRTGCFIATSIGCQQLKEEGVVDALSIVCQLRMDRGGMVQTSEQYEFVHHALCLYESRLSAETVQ
HePTP (Homo sapiens), sequence (P35236 whole entry): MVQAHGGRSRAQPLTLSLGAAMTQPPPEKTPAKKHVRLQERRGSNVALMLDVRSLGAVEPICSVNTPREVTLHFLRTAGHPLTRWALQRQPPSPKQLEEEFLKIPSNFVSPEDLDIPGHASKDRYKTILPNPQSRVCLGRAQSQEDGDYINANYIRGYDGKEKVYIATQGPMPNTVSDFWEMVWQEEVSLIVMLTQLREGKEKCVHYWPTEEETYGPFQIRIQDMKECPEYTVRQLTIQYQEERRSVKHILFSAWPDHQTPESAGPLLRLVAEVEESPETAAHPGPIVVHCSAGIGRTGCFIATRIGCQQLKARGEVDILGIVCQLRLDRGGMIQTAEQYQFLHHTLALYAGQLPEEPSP

ERK2 (from UniProt P63086): the Kd with HePTP (Homo sapiens) was 370 nM.
For the molecule p38α (from UniProt Q16539), the figures for the Kd (with PTPSL (Homo sapiens); in [1]) were 380 nM and 900 nM, respectively.

B1: STEP (residues 213-539, mouse) (domain or fragment, UniProt P54830 213-539, looked up)
chain: MGLQERRGSNVSLTLDMCTPGCNEEGFGYLVSPREESAHEYLLSASRVLRAEELHEKALDPFLLQAEFFEIPMNFVDPKEYDIPGLVRKNRYKTILPNPHSRVRLTSPDPEDPLSSYINANYIRGYSGEEKVYIATQGPIVSTVADFWRMVWQERTPIIVMITNIEEMNEKCTEYWPEEQVVHDGVEITVQKVIHTEDYRLRLISLRRGTEERSLKHYWFTSWPDQKTPDRAPPLLHLVREVEEAAQQEGPHCSPIIVHCSAGIGRTGCFIATSICCQQLRREGVVDILKTTCQLRQDRGGMIQTCEQYQFVHHAMSLYEKQLSLQS
notes: STEP (PTPN5, striatal enriched protein tyrosine phosphatase), mouse, residues 213-539 (KIM, KIS and catalytic domain); The results loosely call this construct 'full-length STEP'; the construct is residues 213-539; also called STEP_(213-539); PTPN5; source: final SEC
As for B1, the “relative binding to ERK2 (in words)” value with ERK2 [2] (ERK2, ITC) is on record as “tightest binding complex of all MAPK:KIM-PTP complexes tested; also recorded: more strongly than does HePTP”. Besides, the “tighter binding to ERK2 than the STEPKIM peptide” value in the assay with ERK2 [2] (ERK2, ITC, versus STEPKIM) amounted to 11 times. Moreover, the “lower Kd (tighter binding) than the next tightest complex, ERK2:PTPSL” value with ERK2 [2] (ERK2:STEP versus ERK2:PTPSL) is approximately 3 times. In addition, in the assay with ERK2 [2] (ITC Kd, ERK2 versus p38α), the “tighter binding to ERK2 than to p38α” value was approximately 12 times and the “tighter binding to ERK2 than to p38α (fold difference in affinity)” value amounted to 12 fold. Also, the “affinity for ERK2 compared with p38α (in words)” value with ERK2 [2] (ITC, ERK2 versus p38α) was “higher binding affinity for ERK2 than for p38α; also recorded: bind more strongly to ERK2”. The same molecule registered a TΔS in the assay with ERK2 [2] (unphosphorylated ERK2, ITC, 25 °C, 10 mM Tris pH 7.5, 150 mM NaCl, 0.1 mM EDTA, 0.5 mM TCEP, average and standard deviation, triplicate) of -19.7 ± 2.0 kcal/mol. In addition, the “Dmax, P(r) function” value in the assay with ERK2 [3] (ERK2:STEP resting-state complex, GNOM, 1.7 mg/ml sample) is listed as 95 Å. For the same molecule, the “Rg, P(r) function calculation” value with ERK2 [3] (ERK2:STEP resting-state complex, GNOM, 1.7 mg/ml sample, Q-range 0.013–0.303 Å^−1) is reported as 31.1 Å. Also, in the assay with ERK2 [3] (ERK2:STEP versus ERK2:HePTP), the “Dmax shorter than that of the ERK2:HePTP complex” value is reported as approximately 15 Å and the “Rg smaller than that of the ERK2:HePTP resting-state complex” value is recorded as approximately 3.0 Å. Further, the “Rg and Dmax compared with p38α:STEP complex (in words)” value with ERK2 [3] (ERK2:STEP versus p38α:STEP resting-state complex) was “highly similar to those determined for the p38α:STEP resting-state complex”. Besides, the “χ^2, structure modeling” value with ERK2 [3] (ERK2:STEP, 24 GASBOR envelopes) was found to be 2.3±0.2. Besides, in the assay with ERK2 [3] (resting-state complex, SAXS), the “shape of the complex with ERK2 (in words)” value is recorded as “compact; also recorded: more compact, globular complexes”. The dissociation constant (Kd) at p38α [4] is 577 ± 71 nM. Also, in the assay with ERK2 [5], the “NSD, structure modeling” value is reported as 1.31±0.05. In assay [6], the Kd was found to be 48 nM and the dH is -29.5 kcal/mol.

B2: DUSP16 MAPK binding domain (residues 5-138, human) (domain or fragment, UniProt Q9BY84 5-138, looked up)
chain: MIGTQIVTERLVALLESGTEKVLLIDSRPFVEYNTSHILEAININCSKLMKRRLQQDKVLITELIQHSAKHKVDIDCSQKVVVYDQSSQDVASLSSDCFLTVLLGKLEKSFNSVHLLAGGFAEFSRCFPGLCEG
notes: also called DUSP16 MKBD; DUSP16 MKB domain; source: final SEC
Take B2: the “weaker binding to ERK2 than to p38α (difference in Kd)” value in the assay with ERK2 [2] (ITC Kd, ERK2 versus p38α) is recorded as approximately 1.4 fold. Also, the “affinity for ERK2 compared with p38α (in words)” value with ERK2 [2] (ITC, ERK2 versus p38α) is “binds these MAPKs with similar affinities; also recorded: binds both MAPKs with similar affinities”. In addition, the equilibrium dissociation constant (Kd) on p38α [4] (listed as DUSP16MKBD-KIM) was 890 ± 230 nM; at p38α [4], approximately 900 nM; in assay [8], 1300 nM. Further, the “interaction with p38α by NMR (in words)” value with p38α [7] (NMR, MAPK-binding domain, ref [18]) is reported as “interacts at multiple positions with p38α”. Further, the dH in assay [8] is -4.8 kcal/mol.

B3: STEPCAT: STEPCAT (residues 244–539), catalytic domain of STEP (protein, UniProt P54829 244-539, looked up, fragment)
chain: GSNVSLTLDMCTPGCNEEGFGYLMSPREESAREYLLSASRVLQAEELHEKALDPFLLQAEFFEIPMNFVDPKEYDIPGLVRKNRYKTILPNPHSRVCLTSPDPDDPLSSYINANYIRGYGGEEKVYIATQGPIVSTVADFWRMVWQEHTPIIVMITNIEEMNEKCTEYWPEEQVAYDGVEITVQKVIHTEDYRLRLISLKSGTEERGLKHYWFTSWPDQKTPDRAPPLLHLVREVEEAAQQEGPHCAPIIVHCSAGIGRTGCFIATSICCQQLRQEGVVDILKTTCQLRQDRGGMI
modifications: catalytic domain
notes: STEPCAT (residues 244–539), catalytic domain of STEP
In the case of B3, the “interaction with p38α by NMR (in words)” value with p38α [7] (NMR spectroscopy, ref [14]) is “interacts directly with p38α”.

(Values after PMC3956856, “Interaction of Kinase-Interaction-Motif Protein Tyrosine Phosphatases with the Mitogen-Activated Protein Kinase ERK2” (PLoS ONE, 2014).)
